The values that follow are results of earlier work, collected in article PMC8961861.

In this data set the target is Drebrin 1-300 (Homo sapiens) (UniProt Q16643). The data set can be described thus: NMR.
Sequence of UniProt Q16643 (Q16643 1-300): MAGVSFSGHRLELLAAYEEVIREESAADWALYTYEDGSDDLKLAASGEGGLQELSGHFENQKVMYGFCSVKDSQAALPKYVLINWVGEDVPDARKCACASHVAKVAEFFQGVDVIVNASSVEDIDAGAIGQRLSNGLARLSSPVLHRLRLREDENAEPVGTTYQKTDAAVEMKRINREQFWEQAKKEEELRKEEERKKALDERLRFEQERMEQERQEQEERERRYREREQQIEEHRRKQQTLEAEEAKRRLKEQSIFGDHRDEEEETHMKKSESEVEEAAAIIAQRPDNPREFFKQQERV

As a reminder, the Kd is the concentration at which binding is half-saturated. Take Cx43CT 236-382 (from UniProt P08050): the dissociation constant (Kd) was 300 µM.
